Assay: soluble on expression in E. coli; label from the status in PepcDB or PDB records
For “MGSDKIHHHHHHMVEFQSRIGKDGRLTVMEIPFDARETFQMPKGTIFVCGTINGIPYRGKLLSRGNGKQVLTIDKTLQKGLGYAGQDFPVNVAMACENQAEMVDEEKEAIPRLHSDMEAITAIAGRASVRKYMDKTVEPQKLEVILRAGLSAPSAKNKRPFHFVVVEDKAVLGAWAAGNSNAKMLSHAPCCIVVCGDGNVEGTRDFLVGGCAAATQNMLIAIHALGLGGVWCGVLRGKEWSRQVAADLYLPVKVEPLAVIALGYPTEQEKAPVPWDMKSHIHYERW”, the “soluble on expression in E. coli” value was “not soluble”. With “MPGAAAKGSELSERIEGFVETLKRGGGQRSSEDMARETLGLLRRLITDHHWNNAGDLMDLIRREGRRMTAAQPSETTVGNMVRRVLKIIREEYGRLHGRSDESDQQESLHKLLTSGGLSEDFSFHFAPLKANIIEAINELLVELEGTMENIAAQALEHIHSNEVIMTIGYSRTVEAFLKEAARKRKFHVIVAECAPFCQGHEMAVNLSKEGIETTVMTDAAIFAVMSRVNKVIIGTKTILANGSLRAVAGTHTLALAAKHHSTPLIVCAPMFKLSPQFPSEEDSFHKFVAPEEVLPFTEGDILEKVSVHCPVFDYVPPDLITLFISNIGGNAPSYIYRLMSELYHPDDHVL” the “soluble on expression in E. coli” value was “not soluble”. In the case of “MGSDKIHHHHHHMASAPQANLPMFYNDLMPLNSRDHAAWKAKNADAAPWLIGQHAIPLTAEEFPQAARHYPIIFASGDNPVPLALMGLNEGVNVFVDEDGKVTQPVYIPAYVRRYPFLLAKLNPNSEELSLCFDPSSGLIGDSVDGVELFSDGQPSEATKAALGFCEQFEQAGQRTQAFIDELKKHDLLMEGEVAIQQQGNEQPFIYRGFQMVNQDKLRETRGDVLRGWAQSGLLPLLYAHLFSLELISQIFGAQVQMGKGPIPATPVPAE”, the “soluble on expression in E. coli” value is reported as “not soluble”. In the case of “MLRTQAARLICNSRVITAKRTFALATRAAAYSRPAARFVKPMITTRGLKQINFGGTVETVYERADWPREKLLDYFKNDTFALIGYGSQGYGQGLNLRDNGLNVIIGVRKDGASWKAAIEDGWVPGKNLFTVEDAIKRGSYVMNLLSDAAQSETWPAIKPLLTKGKTLYFSHGFSPVFKDLTHVEPPKDLDVILVAPKGSGRTVRSLFKEGRGINSSYAVWNDVTGKAHEKAQALAVAIGSGYVYQTTFEREVNSDLYGERGCLMGGIHGMFLAQYDVLRENGHSPSEAFNETVEEATQSLYPLIGKYGMDYMYDACSTTARRGALDWYPIFKNALKPVFQDLYESTKNGTETKRSLEFNSQPDYREKLEKELDTIRNMEIWKVGKEVRKLRPENQ”, the “soluble on expression in E. coli” value is reported as “not soluble”. For “HMMQSWSAPAIPVVPGRGPALRLFDSADRQVRPVTPGPTATMYVCGITPYDATHLGHAATYLTFDLVHRLWLDAGHTVQYVQNVTDVDDPLFERAERDGIDWRTLGDRETQLFREDMAALRVLPPHDYVAATDAIAEVVEMVEKLLASGAAYIVEDAEYPDVYFRADATAQFGYESGYDRDTMLTLFAERGGDPDRPGKSDQLDALLWRAERPGEPSWPSPFGRGRPGWHVECSAIALTRIGTGLDIQGGGSDLIFPHHEYSAAHAESVTGERRFARHYVHTGMIGWDGHKMSKSRGNLVLVSQLRAQGVDPSAIRLGLFSGHYREDRFWSNEVLDEANARLARWRSATALPEAPDATDVIARVRQYLADDLDTPKALAALDGWCTDALSYGGHDTESPRLVATTVDALLGVDL”, the “soluble on expression in E. coli” value was “soluble”. For “MGHHHHHHSHMAAPPQLRALLVVVNALLRKRRYHAALAVLKGFRNGAVYGAKIRAPHALVMTFLFRNGSLQEKLWAILQATYIHSWNLARFVFTYKGLRALQSYIQGKTYPAHAFLAAFLGGILVFGENNNINSQINMYLLSRVLFALSRLAVEKGYIPEPRWDPFPLLTAVVWGLVLWLFEYHRSTLQPSLQSSMTYLYEDSNVWHDISDFLIYNKSRPSN”, the “soluble on expression in E. coli” value was “not soluble”. In the case of “MSLYKIITSDLDETLLRQDGSISSANVAAIAAASKRGVKFVPNTGRSFLSIQPLLKTLNLYQRPNEYVVSYNGGVVVENQDNRVIVSNEMPYEEAAKAFAIMSEFDVDIHIYTLDHLFIYRPRADDRAYLQTRGVTFTEMTGAFDQFRNAQIMKVIVMNPDVMVRQQVYAAIKAAFTEINCTYSSGIYMEVNHAGVDKGRAILDLGDKLGIKADEIMAIGDNANDLGMLTKVGLPVSVANGIDDVKQVAKFVTPHDYERGVADAIETFILEGHHHHHH”, the “soluble on expression in E. coli” value is reported as “soluble”. With “MAHHHHHHMANISPNSDGDSFVGADTAKQLSDIQKKLNDLKQRREELEEQRRRILGASDQSSSRPRSLRGPTQNRRRHSQPSQRTLPLRPPRPPISDHSIRIPNEKERQQTAQRTPYLEMKESMRRSWSRDSSLVMGSFLMEDNPRARTFTRERRFIPPPECNGIYFLGTEMELMIRNKNVAPSQRSGRRDNTPYRWNDIIDGVTPGPGAYTPLFSKVSKPSRRAQLF” the “soluble on expression in E. coli” value was “not soluble”. In the case of “GNKIPTTMAFRTVTDVDNAVNGLYDLMSGSGYYGAAMFAYGDMKGDDMQSSEESGVCNTCYMFNHRPNSLNAGSLWGRPFYILREAWNILNAIAEGKIESGDEKKLNALKGETMAVIALCQFDLTRCFGYPYTKDKGASLGAPLIDHLVGTYENPPRSTVAQAYDFIIETLEEAVTLMSEEKNNGRMNKYAARALLARIYLYHDDNRKAFDLADQLIKDADTSGSYALYPHEKYVAAWSVEAKFGSESFFEIANSVDDTPGRDSWGYLLNWYGYQKGFVTQKYAEQMLADPGDVRGHLLEENKYAGKTVWWLYKLRGTDLKTAPLECNNVVLRLSEVYLIAAEAGCKLGGDAAVQGLGYLNEIVKRGNPDNEVTMADYTLDRVLDERSKELVGEGHRFFDLLRNGKTIVRKGGYHLPSVDEEVDWDFYKCVLPIPEDQFIFSPEMEQNPGYPKN”, the “soluble on expression in E. coli” value is reported as “soluble”. For “MPTVRLADGDLNYSLEGPAGAPVLLLSNSLGTDLGMWDTQIPALTAHFRVLRYDTRGHGASLVTPGPYAIGQLGADVLALLDALELPRVHFCGLSMGGLIGQWLGIHAGERLGRLVLCNTAAKIASDEVWNTRIDTVLKGGEQAMRDLRDASVARWFTAGFAEREPAQVERIVAMLAATSPQGYAANCAAVRDADFREQLGLVQAPTLIVAGSHDAVTTPDNARFMQARIADAQLVEFAAAHLSNVEAGDAFSRRLVDFLL”, the “soluble on expression in E. coli” value was “not soluble”. For “MPWWEQNIGMGGGALSAKQQTSADSRTESLQSLSDERRDFIQKSLDAWCANLGYKDSTVNMLTLSRTLCISKDELSVFFDQYLKTTFRIWLGDIRFNAAKKMMLEFPDYSNDIISAECGFSARTYLYRIFKSKEGCTPTEWREEQVANAAPDDKKQD”, the “soluble on expression in E. coli” value was “not soluble”. With “MSLGYGIRLLVWGEFACFTRPEMKVERVSYDVMTPSAARGILESIHWKPSIVWKIDKIHVLNEIRFDNVRRNEVGSKIPTGNVRKAMKGEPTLLCQYASEDRQQRATLLLRNVAYVIVAHFEMTSKAGPQDSPEKHYAIFSRRARQGQCFQQPYFGCREFPAKFRLIEEDEPTPHSLHKGDKDLGWMLLDIDHEDGMNPRFFRATMKDGLIEVPPMERGLTVLEGHHHHHH” the “soluble on expression in E. coli” value was “soluble”. In the case of “MPPMHLLKSKVHIAEALNDETTMSLLKKIVSKKCISKISQWKNELSSNLDG”, the “soluble on expression in E. coli” value is reported as “not soluble”. For “MKKILVLGGAHIDRRGMIETETAPGASNPGSWMEEAGGGGFNAARNLSRLGFEVRIIAPRGGDVTGEVVAEAARQAGVEDTPFTFLDRRTPSYTAILERDGNLVIALADMDLYKLFTPRRLKVRAVREAIIASDFLLCDANLPEDTLTALGLIARACEKPLAAIAISPAKAVKLKAALGDIDILFMNEAEARALTGETAENVRDWPNILRKAGLSGGVVTRGASEVVAFNGTEKAILHPPLIREVKDVTGAGDAMASGYLAAIAEGKTIREALRQGAAAAAITVQSSFATSQDLSKDSVEAMLGLVPQAEMLA”, the “soluble on expression in E. coli” value was “soluble”. For “MGSDKIHHHHHHMVSKYHEIFLNIIQQIEDGQLKRGDKLPSIRQLSQDFHCSKDTVQKALSELKYQKYIYPILKSGYYVFEDNHEEEILPPISPSNYHNIAYEDFRTCMNETLVGREDYLFNYYHQEEGLEELTQSLQALFVDEAIYSKKENIVVTSGSQQALYILSQMTFPNQKEIILLEQPTYHRMNTLVKSQNLPYLTIERGFDGLDFNRLEEIFKQEKIKFFYTIPRLSNPLGLSYSHKEKQTLVELAHKYDVYIIEDDYMADFDRASNVSLHYLDTNDRIIYLKSFSMSLFPALRLGSLILPKKLLKKFLDYKNLIDYDTNLIMQKALSLYIDNGMFAKNKKRLKQMYYQKTSELAKEFSTFTLKLPHHIFQDSLILQLPTKVNLALLKYRLNSPNFLEKNYISTCPYHFIQLQAGENWQNLLTIFE”, the “soluble on expression in E. coli” value was “not soluble”. In the case of “MAHHHHHHMVSMIVAGATGAIGRTVVQYAIQQPSIDRVVALTRFRNTAVSNYENLFGIIVAGEAGNTDSRGDGANSKRKKGSGSPAGTVTATPAEAAKIRPITMDWEEFTQLWVAKRSSTSAAASGADNCAAGAAATAITDPTERYRGIFGGHTYAAMCLGTTRKDAGSAKSFTRCDYDYVMAFTEAVLAYSAPAGLSPAKAFVHHIGDGGASKQVHVQEGMGKEVDVLAAMNANAAQSSGTLRVFCQVSSSNASSSSWFLYMQTKGIADESTVERVHRHNKCATAAAALSPVNLLLLQPGLLERHGKTRATEKFAKLIMSSIPVETCGAAIVSACKSLPIQHSVQRAETTSAAEQAKHDEVEGAQVEKENNTVAAGVRKTPLGKPYVATKALCKAGMPPNEPLPYIYAANNAVITDLASRLTA”, the “soluble on expression in E. coli” value is reported as “not soluble”. In the case of “MMSLREKLIRELRRRGPIGIDQYEIEELMGFSKSTASEALSKLEAEGIIARRQISGRSKRVWLREFIPYRDPEMIRIGCLKSTEYAGFLSAAKDYCENKGIKAVIRFYNDATSILHDLSTGTLEFGLSPIFTETLFALSRHDIVIAGPVASGGSGIFENPASCENIVATSESTSMMLLSREFRRREGDVKITIFSDPIKASDGFRAGDFRYIAIWEPYASVIGANKLYDYSDLMDTFPCCGIAVSSGRSKDADLKSIIDAYRETDVEIRSDVIDMLSKATRCSKRAVMNSLGSYNFKLKYDMQTILRYMDFIGYPASEDAIKKVFLL”, the “soluble on expression in E. coli” value is reported as “soluble”. For “GNNMYKLSENNHKSLLENLKRRGIIDDDDVYNTMLQVDRGKYIKEIPYIDTPVYISHGVTISAPHMHALSLKRLINVLKPGSRAIDVGSGSGYLTVCMAIKMNVLENKNSYVIGLERVKDLVNFSLENIKRDKPELLKIDNFKIIHKNIYQVNEEEKKELGLFDAIHVGASASELPEILVDLLAENGKLIIPIEEDYTQVLYEITKKNGKIIKDRLFDVCFVSLKKN”, the “soluble on expression in E. coli” value was “soluble”. For “GPGSMLRKVTSPYKVSIRRTAASVTAADSKKAILRLIRFDPETNKQRVESYEYDKHHDYMVLDLITAVKAHQDPTLAFRASCCEGVCGSCAMNINGVNSLACITFSQQVTTVGPLPNFPVIKDFVVDLRHFFRQYAYIRPFVRNVNLDRSRLDNIVERYKTITKVIHGVPSDDEAQLAQLESKSGAQTDVMALLQLLDAVCESGNVTHLIRTLEALQERGMQLDQGKVKALIEETLQNYKKRKLGA”, the “soluble on expression in E. coli” value was “not soluble”. With “MIQAILVFNNHGKPRLVRFYQRFPEEIQQQIVRETFHLVLKRDDNICNFLEGGSLIGGSDYKLIYRHYATLYFVFCVDSSESELGILDLIQVFVETLDKCFENVCELDLIFHMDKVHYILQEVVMGGMVLETNMNEIVAQIEAQNRLEKSEGGLSAAPARAVSAVKNINLPEIPRNINIGDLNIKVPNLSQFV” the “soluble on expression in E. coli” value was “not soluble”. In the case of “MGSDKIHHHHHHMINTKNLNVFYNENKVLKDIQLEVIPGRITGIIGPNGAGKSTLIKAILNIVPHSGEILINGEVSKKQLKKIAYVEQKSDIDHTFPIKVKECVSLGTYTGLKLFQKLGAKEWSRVSEALQKVNLLDYENRQIGELSGGQFQRVLLARCLVQEADYIFLDEPFVGIDSISEKIIMDILQDLKHQGKTILIVHHDLSKVKEYFDDIIILNRELIAYGPINENFSQKNLKKAYGDNIFIGD”, the “soluble on expression in E. coli” value is reported as “not soluble”.

— the DeepSol protein solubility set
